Test results published in article PMC5148590.

Tests used:
[1] = target: Photobacterium profundum α-carbonic anhydrase (Photobacterium profundum SS9); assay: SEC; Hiprep 16/60 Sephacryl S-200 equilibrated with 20 mM Tris pH 7.5 and 150 mM NaCl; dimer to monomers
[2] = target: Photobacterium profundum α-carbonic anhydrase (Photobacterium profundum SS9); assay: non-reducing SDS-PAGE with protonography; purified PprCA in Laemmli loading buffer without 2-mercaptoethanol, 12% SDS gel, stained with Coomassie blue or by in-gel CO2 hydratase activity (bromothymol blue)

- stoichiometry N [1]: 2
- stoichiometry N [2]: 2
Substance: Photobacterium profundum α-carbonic anhydrase (enzyme)
